The record followed here is article PMC5954120.

This assay has as its target GST-Pmp23 (S. pneumoniae) (UniProt Q8DPY9). Nature of the assay: MST; 100 nM GST-Pmp23 labeled with NT-647, titrated with PBP2x (7 nM to 235 μM) or BSA (5 nM to 360 μM); 25 °C; 50 mM Tris-HCl, 150 mM NaCl, 10 mM MgCl2, 0.05% Tween-20; triplicates.
Sequence of UniProt Q8DPY9 (Q8DPY9 whole entry): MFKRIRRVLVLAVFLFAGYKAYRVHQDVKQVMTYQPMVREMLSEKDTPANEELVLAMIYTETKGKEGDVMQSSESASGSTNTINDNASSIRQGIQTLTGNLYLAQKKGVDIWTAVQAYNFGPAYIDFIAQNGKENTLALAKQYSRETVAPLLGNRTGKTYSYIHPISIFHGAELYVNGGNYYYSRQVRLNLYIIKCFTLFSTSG

Consider “extracellular domain of PBP2x (domain or fragment)”, for which the Kd (as a rule, the equilibrium constant for the complex coming apart) worked out at 9 µM. This lies in the single-digit micromolar range.
